In the series the test system is Escherichia coli TOP10. Kind of series: shrunken log2 fold change of peptide-encoding DNA abundance (4.5 h post-induction vs induction); higher = less antimicrobial activity (less host growth inhibition). Conditions: time post-induction: 4.5 h; library: site-saturation at positions 5, 18, 19, 20.

The source of these data is the supplement of paper PMC9112550, “Optimization of the antimicrobial peptide Bac7 by deep mutational scanning” (BMC Biology, 2022).
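Note: peptides expressed intracellularly from a pBAD plasmid library in pooled LB shake-flask culture, induced with 0.3% L-arabinose, DNA abundance read by NGS, three biological replicates, DESeq2 with apeglm shrinkage.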

RRIRWRPPRLPRPRPRPQWQPRP: the “shrunken log2 fold change” value worked out at 0.0209.

As for RRIRFRPPRLPRPRPRPLHSPRP, the “shrunken log2 fold change” value was determined as 0.12.

Regarding RRIRSRPPRLPRPRPRPPSAPRP, the “shrunken log2 fold change” value was 0.646.

Regarding RRIRSRPPRLPRPRPRPGAKPRP, the “shrunken log2 fold change” value was 0.513.

Take RRIRTRPPRLPRPRPRPTQEPRP: the “shrunken log2 fold change” value was -0.0182.

Regarding RRIRGRPPRLPRPRPRPIFDPRP, the “shrunken log2 fold change” value worked out at 0.378.

On to RRIRQRPPRLPRPRPRPTLTPRP, for which the “shrunken log2 fold change” value is 0.0596.

Consider RRIRGRPPRLPRPRPRPVECPRP, for which the “shrunken log2 fold change” value turned out to be 0.289.

As for RRIRKRPPRLPRPRPRPLDAPRP, the “shrunken log2 fold change” value stood at 0.748.

As for RRIRIRPPRLPRPRPRPVAAPRP, the “shrunken log2 fold change” value was 0.176.

For the sequence RRIRPRPPRLPRPRPRPTKMPRP, the “shrunken log2 fold change” value came to 0.0417.

On to RRIRARPPRLPRPRPRPWITPRP, for which the “shrunken log2 fold change” value is -0.0939.

Regarding RRIRQRPPRLPRPRPRPHNIPRP, the “shrunken log2 fold change” value was -0.076.

RRIRPRPPRLPRPRPRPMSFPRP: the “shrunken log2 fold change” value was -0.0289.

As to RRIRVRPPRLPRPRPRPLTIPRP, the “shrunken log2 fold change” value was -0.329.

Turning to RRIRLRPPRLPRPRPRPEPNPRP, the “shrunken log2 fold change” value stood at 0.0389.

With RRIRERPPRLPRPRPRPVRTPRP, the “shrunken log2 fold change” value is 0.496.

For RRIRDRPPRLPRPRPRPPPVPRP, the “shrunken log2 fold change” value stood at 0.867.

On to RRIRLRPPRLPRPRPRPEMSPRP, for which the “shrunken log2 fold change” value is -0.0316.

With RRIRCRPPRLPRPRPRPVYYPRP, the “shrunken log2 fold change” value was -0.363.

Take RRIRARPPRLPRPRPRPYPWPRP: the “shrunken log2 fold change” value is -0.32.

On to RRIRCRPPRLPRPRPRPTGAPRP, for which the “shrunken log2 fold change” value stood at 0.419.

Turning to RRIRGRPPRLPRPRPRPHYDPRP, the “shrunken log2 fold change” value was -0.0292.

As for RRIRARPPRLPRPRPRPKIRPRP, the “shrunken log2 fold change” value turned out to be 0.379.

For the sequence RRIRERPPRLPRPRPRPEMDPRP, the “shrunken log2 fold change” value is 0.125.

On to RRIRMRPPRLPRPRPRPTFIPRP, for which the “shrunken log2 fold change” value was -0.027.

As for RRIRARPPRLPRPRPRPNFVPRP, the “shrunken log2 fold change” value is -0.122.

For the sequence RRIRNRPPRLPRPRPRPSYGPRP, the “shrunken log2 fold change” value is -0.156.

In the case of RRIRERPPRLPRPRPRPGPDPRP, the “shrunken log2 fold change” value was -0.118.

Regarding RRIRERPPRLPRPRPRPAEDPRP, the “shrunken log2 fold change” value was 0.0107.

For the sequence RRIRRRPPRLPRPRPRPVRWPRP, the “shrunken log2 fold change” value turned out to be 0.825.

Regarding RRIRTRPPRLPRPRPRPLQKPRP, the “shrunken log2 fold change” value is -0.134.

With RRIRVRPPRLPRPRPRPMNCPRP, the “shrunken log2 fold change” value worked out at 0.0359.

Turning to RRIRMRPPRLPRPRPRPLKVPRP, the “shrunken log2 fold change” value amounted to 0.153.

With RRIRMRPPRLPRPRPRPMILPRP, the “shrunken log2 fold change” value was -0.0491.

With RRIRVRPPRLPRPRPRPTYMPRP, the “shrunken log2 fold change” value was -0.445.

RRIRWRPPRLPRPRPRPEYKPRP: the “shrunken log2 fold change” value amounted to 0.472.

For RRIRGRPPRLPRPRPRPRESPRP, the “shrunken log2 fold change” value worked out at 1.26.

On to RRIRPRPPRLPRPRPRPVKAPRP, for which the “shrunken log2 fold change” value worked out at 0.216.

For the sequence RRIRMRPPRLPRPRPRPLWWPRP, the “shrunken log2 fold change” value amounted to 0.795.

RRIRNRPPRLPRPRPRPHSGPRP: the “shrunken log2 fold change” value is -0.517.

RRIRTRPPRLPRPRPRPFIQPRP: the “shrunken log2 fold change” value was -0.312.

As for RRIRGRPPRLPRPRPRPFVVPRP, the “shrunken log2 fold change” value is 0.222.

For the sequence RRIRSRPPRLPRPRPRPQCLPRP, the “shrunken log2 fold change” value was -0.208.

With RRIRKRPPRLPRPRPRPWQAPRP, the “shrunken log2 fold change” value came out at 0.000778.

As to RRIRNRPPRLPRPRPRPISFPRP, the “shrunken log2 fold change” value was -0.0972.

As for RRIRFRPPRLPRPRPRPYYKPRP, the “shrunken log2 fold change” value was -0.207.

Take RRIRCRPPRLPRPRPRPNYYPRP: the “shrunken log2 fold change” value was -0.868.

Take RRIRERPPRLPRPRPRPGSRPRP: the “shrunken log2 fold change” value was -0.0607.

As for RRIRMRPPRLPRPRPRPQYYPRP, the “shrunken log2 fold change” value is -0.805.

In the case of RRIRLRPPRLPRPRPRPWQYPRP, the “shrunken log2 fold change” value is -0.0471.

On to RRIRKRPPRLPRPRPRPHHMPRP, for which the “shrunken log2 fold change” value is -0.0738.

With RRIRGRPPRLPRPRPRPCDRPRP, the “shrunken log2 fold change” value stood at 0.00287.

Take RRIRMRPPRLPRPRPRPAHSPRP: the “shrunken log2 fold change” value was 0.111.

For the sequence RRIRFRPPRLPRPRPRPQRNPRP, the “shrunken log2 fold change” value was -0.323.

Regarding RRIRSRPPRLPRPRPRPWVRPRP, the “shrunken log2 fold change” value was found to be 0.0976.

Turning to RRIRARPPRLPRPRPRPRQIPRP, the “shrunken log2 fold change” value came to 0.313.

Take RRIRVRPPRLPRPRPRPHSQPRP: the “shrunken log2 fold change” value was 0.288.

Regarding RRIRERPPRLPRPRPRPLAKPRP, the “shrunken log2 fold change” value is 0.0848.

RRIRERPPRLPRPRPRPPASPRP: the “shrunken log2 fold change” value is 0.127.

As to RRIRMRPPRLPRPRPRPYCVPRP, the “shrunken log2 fold change” value worked out at 0.117.

Take RRIRVRPPRLPRPRPRPSAKPRP: the “shrunken log2 fold change” value is -0.354.

Turning to RRIRSRPPRLPRPRPRPLYGPRP, the “shrunken log2 fold change” value is -0.565.

Consider RRIRCRPPRLPRPRPRPFMAPRP, for which the “shrunken log2 fold change” value was -0.15.

Turning to RRIRHRPPRLPRPRPRPTTAPRP, the “shrunken log2 fold change” value came to 0.0968.

As for RRIRWRPPRLPRPRPRPQHMPRP, the “shrunken log2 fold change” value was -0.459.

For the sequence RRIRERPPRLPRPRPRPCVRPRP, the “shrunken log2 fold change” value was -0.447.

Regarding RRIRTRPPRLPRPRPRPDMEPRP, the “shrunken log2 fold change” value is -0.132.

On to RRIRIRPPRLPRPRPRPQRRPRP, for which the “shrunken log2 fold change” value amounted to 0.19.

With RRIRQRPPRLPRPRPRPEMEPRP, the “shrunken log2 fold change” value turned out to be 0.0171.

For the sequence RRIRIRPPRLPRPRPRPFMYPRP, the “shrunken log2 fold change” value is -1.36.

In the case of RRIRRRPPRLPRPRPRPLCDPRP, the “shrunken log2 fold change” value was 0.422.

Consider RRIRMRPPRLPRPRPRPADPPRP, for which the “shrunken log2 fold change” value came out at 0.36.

With RRIRERPPRLPRPRPRPRHNPRP, the “shrunken log2 fold change” value was -0.137.

With RRIRCRPPRLPRPRPRPHYRPRP, the “shrunken log2 fold change” value was found to be 0.127.

In the case of RRIRTRPPRLPRPRPRPNKYPRP, the “shrunken log2 fold change” value is -0.76.

For RRIRLRPPRLPRPRPRPEQRPRP, the “shrunken log2 fold change” value is 0.0422.

As for RRIRNRPPRLPRPRPRPCFYPRP, the “shrunken log2 fold change” value was -0.474.

In the case of RRIRERPPRLPRPRPRPKVAPRP, the “shrunken log2 fold change” value came to 0.0804.

Consider RRIRYRPPRLPRPRPRPWACPRP, for which the “shrunken log2 fold change” value was -0.263.

As for RRIRTRPPRLPRPRPRPWFCPRP, the “shrunken log2 fold change” value is -0.392.

As to RRIRRRPPRLPRPRPRPDHLPRP, the “shrunken log2 fold change” value is -0.0237.

Take RRIRKRPPRLPRPRPRPRIQPRP: the “shrunken log2 fold change” value amounted to 0.475.

For RRIRTRPPRLPRPRPRPQMQPRP, the “shrunken log2 fold change” value is -0.0728.

For RRIRWRPPRLPRPRPRPCTFPRP, the “shrunken log2 fold change” value was -0.72.

On to RRIRPRPPRLPRPRPRPVAKPRP, for which the “shrunken log2 fold change” value turned out to be 0.236.

As for RRIRWRPPRLPRPRPRPCTWPRP, the “shrunken log2 fold change” value is -0.217.

As for RRIRFRPPRLPRPRPRPSVEPRP, the “shrunken log2 fold change” value was -0.18.

Turning to RRIRMRPPRLPRPRPRPGYLPRP, the “shrunken log2 fold change” value stood at 0.0963.

Regarding RRIRQRPPRLPRPRPRPLMFPRP, the “shrunken log2 fold change” value is -0.137.

Regarding RRIRLRPPRLPRPRPRPRTTPRP, the “shrunken log2 fold change” value was determined as 0.182.

Regarding RRIRHRPPRLPRPRPRPWCFPRP, the “shrunken log2 fold change” value was -0.688.

In the case of RRIRKRPPRLPRPRPRPRQMPRP, the “shrunken log2 fold change” value came out at 0.0035.

Take RRIRERPPRLPRPRPRPFQEPRP: the “shrunken log2 fold change” value was -0.0402.

As to RRIRQRPPRLPRPRPRPRRIPRP, the “shrunken log2 fold change” value is -0.27.

For the sequence RRIRERPPRLPRPRPRPVTCPRP, the “shrunken log2 fold change” value is -0.204.

For the sequence RRIRSRPPRLPRPRPRPDKQPRP, the “shrunken log2 fold change” value is -0.0566.

Consider RRIRCRPPRLPRPRPRPFIGPRP, for which the “shrunken log2 fold change” value is -0.228.

On to RRIRNRPPRLPRPRPRPIEIPRP, for which the “shrunken log2 fold change” value turned out to be 0.0194.

For the sequence RRIRQRPPRLPRPRPRPHHVPRP, the “shrunken log2 fold change” value is -0.0277.

Consider RRIRERPPRLPRPRPRPSHIPRP, for which the “shrunken log2 fold change” value is -0.25.

In the case of RRIRHRPPRLPRPRPRPWQIPRP, the “shrunken log2 fold change” value was -0.453.

Consider RRIRRRPPRLPRPRPRPGGCPRP, for which the “shrunken log2 fold change” value was found to be 0.325.

RRIRTRPPRLPRPRPRPQCSPRP: the “shrunken log2 fold change” value was found to be 0.0299.

With RRIRVRPPRLPRPRPRPWFPPRP, the “shrunken log2 fold change” value is -0.641.

In the case of RRIRYRPPRLPRPRPRPEDGPRP, the “shrunken log2 fold change” value was -0.141.

As to RRIRHRPPRLPRPRPRPFSKPRP, the “shrunken log2 fold change” value amounted to 0.0242.

RRIRERPPRLPRPRPRPEMAPRP: the “shrunken log2 fold change” value is 0.414.

RRIRLRPPRLPRPRPRPSQLPRP: the “shrunken log2 fold change” value was -0.282.

Turning to RRIRRRPPRLPRPRPRPATPPRP, the “shrunken log2 fold change” value amounted to 0.783.

Consider RRIRFRPPRLPRPRPRPCAEPRP, for which the “shrunken log2 fold change” value was found to be 0.111.

Regarding RRIRARPPRLPRPRPRPYVEPRP, the “shrunken log2 fold change” value was -0.162.

RRIRRRPPRLPRPRPRPRCIPRP: the “shrunken log2 fold change” value was 0.174.

Regarding RRIRYRPPRLPRPRPRPRMCPRP, the “shrunken log2 fold change” value was -0.0134.

For RRIRIRPPRLPRPRPRPHSFPRP, the “shrunken log2 fold change” value was -0.643.

For RRIRGRPPRLPRPRPRPCCQPRP, the “shrunken log2 fold change” value turned out to be 0.181.

Regarding RRIRERPPRLPRPRPRPCTPPRP, the “shrunken log2 fold change” value was -0.239.

Regarding RRIRNRPPRLPRPRPRPTLIPRP, the “shrunken log2 fold change” value was -0.461.

Take RRIRQRPPRLPRPRPRPNEVPRP: the “shrunken log2 fold change” value is -0.00511.

Take RRIRSRPPRLPRPRPRPHKHPRP: the “shrunken log2 fold change” value is -0.411.

With RRIRDRPPRLPRPRPRPFWIPRP, the “shrunken log2 fold change” value is -0.408.

In the case of RRIRGRPPRLPRPRPRPAVNPRP, the “shrunken log2 fold change” value came out at 0.402.

For RRIRRRPPRLPRPRPRPGQEPRP, the “shrunken log2 fold change” value worked out at 0.777.

Turning to RRIRCRPPRLPRPRPRPCWQPRP, the “shrunken log2 fold change” value is -0.0116.

Regarding RRIRIRPPRLPRPRPRPDGKPRP, the “shrunken log2 fold change” value is -0.000921.
